Measurements published in publication PMC2841500 (Biochemical Journal, 2010).
Where two headings read alike, the source gives them in different places.

Key:
Alba1 (Sso10b) [1] = biological target: T1, Alba1 (Sso10b) (Sulfolobus solfataricus, UniProt P60849 1-97); experiment: EMSA
T1 sequence: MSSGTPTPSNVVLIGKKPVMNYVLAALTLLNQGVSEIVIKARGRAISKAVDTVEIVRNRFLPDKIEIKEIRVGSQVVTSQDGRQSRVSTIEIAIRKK

pulsed ESR = biological target: the molecule itself; experiment: pulsed ESR
Alba1 (Sso10b) [2] = biological target: T1, Alba1 (Sso10b); experiment: EMSA; remark: listed apart in the source
Alba1 F60A [3] = biological target: T2, Alba1 F60A (Sulfolobus solfataricus, UniProt P60849 1-97, F60A); experiment: EMSA
T2 sequence: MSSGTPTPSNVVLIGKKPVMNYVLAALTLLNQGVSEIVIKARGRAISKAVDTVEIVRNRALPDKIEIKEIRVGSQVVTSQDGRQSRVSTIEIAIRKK

Alba1 F60A [4] = biological target: T2, Alba1 F60A; experiment: EMSA; remark: listed apart in the source
Alba1 (Sso10b) [5] = biological target: T1, Alba1 (Sso10b); experiment: EMSA; remark: listed apart in the source
Alba1 (Sso10b) [6] = biological target: T1, Alba1 (Sso10b); experiment: EMSA; remark: listed apart in the source

Question: Which Kd (Alba1 (Sso10b) [1]) does the source give for UUUUUUUUUUUUUUUUUUUUUUUUUUUUUU (ssRNA) [30U] here?
Answer: 900 ± 38 nM

B1: spin-labelled Alba R59C (S. solfataricus Alba1 R59C modified with MTSSL) (natural protein, Sulfolobus solfataricus, UniProt P60849 1-97, looked up)
chain: MSSGTPTPSNVVLIGKKPVMNYVLAALTLLNQGVSEIVIKARGRAISKAVDTVEIVRNCFLPDKIEIKEIRVGSQVVTSQDGRQSRVSTIEIAIRKK
modifications: methanethiosulfonate spin label MTSSL on the cysteine at position 59
Question: Does B1 bind (pulsed ESR)?
Answer: binds

Question: AAAAAAAAAAAAAAAAAAAAAAAAAAAA (ssRNA) [28A] was tested. Which Kd (Alba1 (Sso10b) [2]) did it give?
Answer: 960 ± 30 nM

B2: 16 bp duplex (dsDNA)
DNA 1: CCCGGCGTGCGGCCCG
DNA 2: CGGGCCGCACGCCGGG
Question: B2 was tested. Which Kd (Alba1 F60A [3]) did it give?
Answer: 710 ± 20 nM

B3: 39 bp duplex (dsDNA)
DNA 1: CCTCGGTGCTAAGTTGATGCTGGTACTCGGAGTATCCCG
DNA 2: CGGGATACTCCGAGTACCAGCATCAACTTAGCACCGAGG
Question: For B3, which Kd (Alba1 F60A [4]) is on record?
Answer: 520 ± 13 nM

Question: How did the Kd (Alba1 (Sso10b) [5]) turn out when CCTCGGTGCTAAGTTGATGCTGGTACTCGGAGTATCCCG (ssDNA) [39 mer ssDNA] was run?
Answer: 270 ± 13 nM

Question: For CCCGGCGUGCGGCCCG (ssRNA) [16 mer ssRNA], which Kd (Alba1 (Sso10b) [6]) is on record?
Answer: 920 ± 69 nM
